Experimental data taken from patent US20170319643A1.

Molecular target: elastase (porcine pancreas, Sigma Aldrich) (porcine) (UniProt P00772)
Assay: cell-based or functional assay

Sequence of alpha-1-antitrypsin enriched native human HDL (P01009 25-418): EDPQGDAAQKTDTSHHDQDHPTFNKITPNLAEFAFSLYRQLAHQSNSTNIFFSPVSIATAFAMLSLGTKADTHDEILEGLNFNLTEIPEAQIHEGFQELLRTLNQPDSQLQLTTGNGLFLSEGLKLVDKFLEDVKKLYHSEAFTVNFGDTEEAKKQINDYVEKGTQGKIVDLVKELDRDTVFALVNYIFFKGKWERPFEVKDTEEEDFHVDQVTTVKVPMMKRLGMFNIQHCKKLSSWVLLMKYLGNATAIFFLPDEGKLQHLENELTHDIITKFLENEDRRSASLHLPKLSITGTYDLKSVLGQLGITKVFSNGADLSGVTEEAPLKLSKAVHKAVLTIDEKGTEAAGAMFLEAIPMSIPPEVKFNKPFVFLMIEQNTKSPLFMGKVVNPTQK
Sequence of elastase (porcine pancreas, Sigma Aldrich) (porcine) (P00772 27-266): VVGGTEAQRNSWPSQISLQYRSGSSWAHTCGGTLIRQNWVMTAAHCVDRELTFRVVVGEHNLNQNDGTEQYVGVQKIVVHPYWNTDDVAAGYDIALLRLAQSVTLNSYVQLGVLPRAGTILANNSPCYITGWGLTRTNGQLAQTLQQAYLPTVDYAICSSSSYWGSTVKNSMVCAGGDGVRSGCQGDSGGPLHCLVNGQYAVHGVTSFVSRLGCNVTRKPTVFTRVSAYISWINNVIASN

elastase induced TNF-α production by J774 macrophages, change compared to PBS pretreatment: -97%
Substance: alpha-1-antitrypsin enriched native human HDL (from UniProt P01009 25-418)
